Test results published in EP1433851A2.

Molecular target: FITC-labeled CD4 (UniProt P01730)
Experiment: size exclusion HPLC (Biosil 250); CD4-FITC alone eluted at 2.67 minutes

Row | Substance | retention time of the complex
1 | US4 gp120, purified from CHO cell culture supernatant | 2.17 min
2 | oligomeric gp140 US4 (o-gp140 US4), purified from CHO cell culture supernatant | 1.9 min
